Measurements from article PMC314469, “Protein Interaction Networks by Proteome Peptide Scanning” (PLoS Biology, 2004).

T1: Yhr016c SH3 (YSC84_YEAST), P32793
T1 chain: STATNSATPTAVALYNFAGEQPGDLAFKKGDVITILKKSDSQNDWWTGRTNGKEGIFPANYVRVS

T2: Myo5 SH3 (MYO5_YEAST), Q04439
T2 chain: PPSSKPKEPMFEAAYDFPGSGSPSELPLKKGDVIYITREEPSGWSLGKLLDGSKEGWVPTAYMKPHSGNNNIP

T3: Rvs167 SH3 (RV167_YEAST), P39743
T3 chain: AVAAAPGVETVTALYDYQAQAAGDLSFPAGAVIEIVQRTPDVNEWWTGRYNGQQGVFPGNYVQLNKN

T4: Yfr024 SH3 (LSB3_YEAST), P43603
T4 chain: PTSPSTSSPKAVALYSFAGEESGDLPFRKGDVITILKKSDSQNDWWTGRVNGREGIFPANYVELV

T5: Boi2 SH3 (BOI2_YEAST), P39969
T5 chain: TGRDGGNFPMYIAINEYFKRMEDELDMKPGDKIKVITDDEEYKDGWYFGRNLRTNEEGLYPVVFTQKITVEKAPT

T6: Boi1 SH3 (BOI1_YEAST), P38041
T6 chain: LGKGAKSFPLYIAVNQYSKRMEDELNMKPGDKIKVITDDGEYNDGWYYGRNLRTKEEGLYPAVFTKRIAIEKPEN

B1: YDR402C 463-476 (peptide)
chain: EWEEKLTPAGPLSP
B2: YDR124W 275-288 (peptide)
chain: EYFPREYPKDPVSE
B3: YPR101W 28-41 (peptide)
chain: FANIKREPVHPEIR
B4: YPR144C 134-147 (peptide)
chain: FASEKGAPFFPNKT
B5: YJR092W 847-860 (peptide)
chain: FEEDKMTPSTPVRS
B6: YKL171W 669-682 (peptide)
chain: FENRKHQPFTPKGM
B7: YOR001W 401-414 (peptide)
chain: FEYSKYRPLTPSSE
B8: YDR310C 827-840 (peptide)
chain: FFYRRDIPDVPITT
B9: YIL125W 149-162 (peptide)
chain: FGSNKNNPVPPELT
B10: YDR490C 268-281 (peptide)
chain: FGTAKILPEEPSNT
B11: YGR019W 335-348 (peptide)
chain: FHDPKFIPNKPYRQ
B12: YHR204W 260-273 (peptide)
chain: FHPEKLTPYTPMTG
B13: YJL201W 254-267 (peptide)
chain: FIKNKAKPLIPIEL

Columns and labels:
Experiment in all cases: SPOT array
[1] = biological target: T1, Yhr016c SH3 (YSC84_YEAST), P32793
[2] = biological target: T2, Myo5 SH3 (MYO5_YEAST), Q04439
[3] = biological target: T3, Rvs167 SH3 (RV167_YEAST), P39743
[4] = biological target: T4, Yfr024 SH3 (LSB3_YEAST), P43603
[5] = biological target: T5, Boi2 SH3 (BOI2_YEAST), P39969
[6] = biological target: Sho1 SH3 (SHO1_YEAST), P40073
Sequence of Sho1 SH3 (SHO1_YEAST), P40073 (P40073 295-366): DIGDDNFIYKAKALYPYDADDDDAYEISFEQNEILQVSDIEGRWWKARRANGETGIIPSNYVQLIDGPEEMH

[7] = biological target: T6, Boi1 SH3 (BOI1_YEAST), P38041

Row | Binder | normalised SPOT signal, Boehringer light units (BLU); mean over the file's lines of this peptide [1] | normalised SPOT signal, Boehringer light units (BLU); mean over the file's lines of this peptide [2] | normalised SPOT signal, Boehringer light units (BLU); mean over the file's lines of this peptide [3] | normalised SPOT signal, Boehringer light units (BLU); mean over the file's lines of this peptide [4] | normalised SPOT signal, Boehringer light units (BLU); mean over the file's lines of this peptide [5] | normalised SPOT signal, Boehringer light units (BLU); mean over the file's lines of this peptide [6] | normalised SPOT signal, Boehringer light units (BLU); mean over the file's lines of this peptide [7]
1 | B1 | 32.1 | 297 | 46.8 | 80.9 | 13.1 | 38.2 | 65.4
2 | B2 | 22.8 | 272 | 104 | 93.1 | 5.6 | 31.2 | 456
3 | B3 | 116 | 188 | 40 | 74.4 | 21.7 | 76 | 96
4 | B4 | 40.9 | 359 | 585 | 264 | 269 | 12.3 | 60.7
5 | B5 | 3920 | 248 | 59.7 | 11100 | 7.9 | 65 | 12
6 | B6 | 33.1 | 211 | 148 | 574 | 0.7 | 126 | 616
7 | B7 | 288 | 143 | 436 | 485 | 111 | 114 | 73.8
8 | B8 | 362 | 138 | 253 | 838 | 33.9 | 839 | 15400
9 | B9 | 37.5 | 172 | 27.1 | 70 | 13.4 | 30.7 | 58.8
10 | B10 | 30.3 | 153 | 23.2 | 0.1 | 7.7 | 183 | 35.5
11 | B11 | 113 | 300 | 28.7 | 498 | 16.3 | 122 | 518
12 | B12 | 42 | 96.5 | 12.7 | 45.9 | 19.5 | 25.1 | 95.4
13 | B13 | 72 | 656 | 952 | 146 | 10.9 | 410 | 700
